According to PMC5435892 (Genes & Development, 2017):
Numbering of substitutions follows the chain as printed. Numbers in names are those of the source. Values belong to the binder of their own block, whether it stands above or below them.

Experiments:
His6-Csm1 (full-length) = molecular target: T1, His6-Csm1 (full-length) (S. cerevisiae, UniProt P25651 1-190); assay: pull-down
T1 sequence (looked up): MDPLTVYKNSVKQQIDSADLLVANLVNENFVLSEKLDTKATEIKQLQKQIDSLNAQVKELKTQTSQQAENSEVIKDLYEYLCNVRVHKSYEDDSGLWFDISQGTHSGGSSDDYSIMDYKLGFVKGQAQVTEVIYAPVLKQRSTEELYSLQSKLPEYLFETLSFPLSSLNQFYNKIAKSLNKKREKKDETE

His6-Csm1^69–190 = molecular target: T2, His6-Csm1^69–190 (S. cerevisiae, UniProt P25651 69-190); assay: ITC
T2 sequence (looked up): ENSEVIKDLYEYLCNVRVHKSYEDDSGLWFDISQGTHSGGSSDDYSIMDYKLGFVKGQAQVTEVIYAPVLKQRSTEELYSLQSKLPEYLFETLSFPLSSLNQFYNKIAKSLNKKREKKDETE

[1] = molecular target: T3, Ulp2^825–844–Tof2^384–400 fusion (S. cerevisiae, UniProt P40537 825-844; Q02208 384-400); assay: co-expression in E. coli and co-purification
T3 chain (looked up): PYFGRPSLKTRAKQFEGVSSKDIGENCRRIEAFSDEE

SUMO-Ulp2^781–873 = molecular target: T4, SUMO-Ulp2^781–873 (S. cerevisiae, UniProt P40537 781-873); assay: SEC-MALS
T4 sequence (looked up): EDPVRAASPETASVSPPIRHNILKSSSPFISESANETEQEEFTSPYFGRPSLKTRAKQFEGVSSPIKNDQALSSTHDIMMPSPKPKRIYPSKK

crystal structure = molecular target: the molecule itself; assay: crystal structure

- binding result (His6-Csm1 (full-length)): binds
B1: GST-Ulp2^781–873 F827A (domain or fragment, S. cerevisiae, UniProt P40537 781-873, looked up)
chain: T4 sequence (looked up) with F47A

- binding result (His6-Csm1 (full-length)): binds
B3: GST-Ulp2^781–873 F839A (domain or fragment, S. cerevisiae, UniProt P40537 781-873, looked up)
chain: T4 sequence (looked up) with F59A

- Ka (His6-Csm1^69–190): 55800 M⁻¹
- dH (His6-Csm1^69–190): -1.08 ± 0.0584 kcal/mol
- stoichiometry N (His6-Csm1^69–190): 0.46 ± 0.02
B4: His6-GST-Ulp2^781–873 F839D (domain or fragment, S. cerevisiae, UniProt P40537 781-873, looked up)
chain: T4 sequence (looked up) with F59D

- stoichiometry N [1]: 1 Csm1 per fusion chain (2:2)
B5: Csm1^69–190 (untagged, coexpressed) (domain or fragment, S. cerevisiae, UniProt P25651 69-190, looked up)
chain: T2 sequence (looked up)

Continued, binder first:

B2: His6-GST-Ulp2^781–873 (domain or fragment, S. cerevisiae, UniProt P40537 781-873, looked up)
chain: T4 sequence (looked up)
- Ka (His6-Csm1^69–190): 1.07e+06 M⁻¹
- dH (His6-Csm1^69–190): -8.613 ± 0.0517 kcal/mol
- stoichiometry N (His6-Csm1^69–190): 0.91 ± 0.004

B6: Csm1^69–181 (untagged, coexpressed) (domain or fragment, S. cerevisiae, UniProt P25651 69-181, looked up)
chain: ENSEVIKDLYEYLCNVRVHKSYEDDSGLWFDISQGTHSGGSSDDYSIMDYKLGFVKGQAQVTEVIYAPVLKQRSTEELYSLQSKLPEYLFETLSFPLSSLNQFYNKIAKSLNK
- stoichiometry N (SUMO-Ulp2^781–873): 1 Csm1 per Ulp2 (2:2)
- stoichiometry N (crystal structure): 2
